Measured values as given in patent US20050282743A1, “Molecular interactions in cells” (Arbor Vita Corporation, priority 2001, published 2005).
Ends that are not written are not given here. * marks the point of attachment. Biotin = O=C1N[C@H]2[C@H](CS[C@H]2CCCCC(=O)*)N1

Key:
Assay in all cases: G' assay (10 uM PL peptide), results of TABLE 7 and TABLE 12
Format in all cases: binding
[1] = biological target: T1, PDZ protein (GST-PDZ fusion) (Homo sapiens, UniProt Q9BXL6); conditions: PDZ CARD14, PDZ Domain 1
T1 construct: made in house; host or cells: E. coli (DH5alpha, BL21 or JM109)
T1 sequence (Q9BXL6 1-1004): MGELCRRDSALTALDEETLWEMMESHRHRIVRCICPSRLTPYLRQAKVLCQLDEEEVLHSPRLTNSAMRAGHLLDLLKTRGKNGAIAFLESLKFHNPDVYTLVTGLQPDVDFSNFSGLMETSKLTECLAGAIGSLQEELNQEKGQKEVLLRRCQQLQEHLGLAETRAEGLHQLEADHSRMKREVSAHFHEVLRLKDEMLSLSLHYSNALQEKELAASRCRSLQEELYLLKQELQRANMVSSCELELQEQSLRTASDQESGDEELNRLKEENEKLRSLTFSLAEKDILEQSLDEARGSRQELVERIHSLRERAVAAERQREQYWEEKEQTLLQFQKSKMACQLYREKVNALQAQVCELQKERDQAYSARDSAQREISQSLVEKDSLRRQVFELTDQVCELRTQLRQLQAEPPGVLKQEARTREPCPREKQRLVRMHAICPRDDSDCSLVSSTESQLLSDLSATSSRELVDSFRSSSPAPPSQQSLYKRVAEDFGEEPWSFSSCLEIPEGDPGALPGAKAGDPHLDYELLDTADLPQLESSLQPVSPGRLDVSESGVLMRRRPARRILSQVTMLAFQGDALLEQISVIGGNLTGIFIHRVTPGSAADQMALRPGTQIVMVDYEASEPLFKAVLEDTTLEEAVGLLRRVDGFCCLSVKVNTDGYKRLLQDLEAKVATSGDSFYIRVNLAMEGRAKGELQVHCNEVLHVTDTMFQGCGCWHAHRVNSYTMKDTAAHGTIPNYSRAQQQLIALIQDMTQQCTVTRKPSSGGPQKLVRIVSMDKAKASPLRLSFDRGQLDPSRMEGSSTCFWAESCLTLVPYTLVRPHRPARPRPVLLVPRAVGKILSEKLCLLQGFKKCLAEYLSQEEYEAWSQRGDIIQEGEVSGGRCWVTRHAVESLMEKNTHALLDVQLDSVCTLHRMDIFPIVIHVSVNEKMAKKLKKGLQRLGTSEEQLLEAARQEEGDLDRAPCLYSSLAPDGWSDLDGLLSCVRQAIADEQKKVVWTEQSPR
Summary of the method: (§1)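 Biotin-PL peptide (N-term label), 10 uM vs GST-PDZ; protein 5 ug/ml by default. A450 nm binned: 1 = 0-1, 2 = 1-2, 3 = 2-3, 4 = 3-4, 5 = >4 on >2 repeats, 0 = no binding.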

[2] = biological target: T2, PDZ protein (GST-PDZ fusion) (Homo sapiens, UniProt Q14168); conditions: PDZ MPP2, PDZ Domain 1
T2 construct: made in house; host or cells: E. coli (DH5alpha, BL21 or JM109)
T2 sequence (Q14168 1-576): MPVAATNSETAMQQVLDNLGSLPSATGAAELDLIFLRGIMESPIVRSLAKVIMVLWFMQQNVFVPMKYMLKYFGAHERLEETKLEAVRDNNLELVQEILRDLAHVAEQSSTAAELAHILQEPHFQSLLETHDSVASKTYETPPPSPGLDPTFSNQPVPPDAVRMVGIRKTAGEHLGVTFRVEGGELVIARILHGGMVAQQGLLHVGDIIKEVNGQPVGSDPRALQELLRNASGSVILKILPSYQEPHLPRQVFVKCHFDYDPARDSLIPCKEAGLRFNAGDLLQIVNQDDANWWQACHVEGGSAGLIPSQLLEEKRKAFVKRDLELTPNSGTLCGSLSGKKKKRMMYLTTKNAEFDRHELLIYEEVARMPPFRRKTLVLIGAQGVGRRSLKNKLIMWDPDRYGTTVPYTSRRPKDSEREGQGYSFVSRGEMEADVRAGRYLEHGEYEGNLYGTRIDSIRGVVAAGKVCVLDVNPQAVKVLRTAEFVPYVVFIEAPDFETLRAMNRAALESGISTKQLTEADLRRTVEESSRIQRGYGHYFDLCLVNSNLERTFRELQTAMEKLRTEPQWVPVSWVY
Summary of the method: as §1

[3] = test system: PDZ protein (GST-PDZ fusion); conditions: PDZ HEMBA 1003117, PDZ Domain 1
Summary of the method: as §1

Measured: Classification

5-HT 3A (serotonin receptor 3A) (Biotin-LAVLAYSITLVMLWSIWQYA)
2 (A450 nm 1-2): all assays above
